Test results: article PMC7689096, “Cyclizing Painkillers: Development of Backbone-Cyclic TAPS Analogs” (Frontiers in Chemistry, 2020)
Several values for one entry are separate records, joined by “and”; a condition that tells them apart may be missing. Identical values can stand only once. Numbered stars: 1 amine (or outer) side, 2 acyl side, 3 side chain; on linkers, the order of the positions; unused ones are H or OH. Bridge positions count the residues as written; N and C are the ends. Square brackets hold non-standard residues; d marks the D form. Primed or numbered codes have the meaning given here. Ends that are not written are not given here. dR(Nα-6-aminohexyl) = N=C(N)NCCC[C@H](C(=O)[*:2])N(CCCCCCN[*:3])[*:1]; dR(Nα-3-aminopropyl) = N=C(N)NCCC[C@H](C(=O)[*:2])N(CCCN[*:3])[*:1]; N(6-aminohexyl)Gly = O=C(CN(CCCCCCN[*:3])[*:1])[*:2]; NGly(3-aminopropyl) = O=C(CN(CCCN[*:3])[*:1])[*:2]; N(2-Aminoethyl)Gly = O=C(CN(CCN[*:3])[*:1])[*:2]; Gly(N-2-aminoethyl)′ = not defined here; CO = O=C([*:1])[*:2]; Nlys = NCCCCNCC(=O)O; Sar = CNCC(=O)O

Tests used:
[1] = target: T1, δ (DOP, OPRD2) opioid receptor (Mus musculus, UniProt P32300); experiment: DOP opioid receptor functional antagonism in NG-10815 cells; type: cell-based, rat; conditions: Between 10^−9-10^−6 M, percent inhibition of control specific agonist response
T1 construct: NG-10815 cells which express significant endogenous levels of δ opioid receptors; host or cells: NG-10815 (NG108-15) mouse N18TG2 neuroblastoma x rat C6-BU-1 glioma hybrid cells
Experimental: (§1) Peptides were tested for μ (MOP, OPRM1) and δ (DOP, OPRD2) opioid receptor activation functional agonism and antagonism using CHO cells expressing human recombinant μ receptors and NG-10815 cells which express significant endogenous levels of δ opioid receptors. The cultures were incubated for 10 min at 37°C followed by impedance measurements of CHO cells and cAMP was assayed by the HTRF method using NG-10815 cells, according to CEREP standard assay protocols. The respective reference, non-peptide small molecules were tested concurrently with the TAPS analogs. The agonist compounds were: DPDPE (selective agonist of DOP receptor) and DAMGO (high MOP receptor specificity) and the antagonist compounds were: Naltrindole (selective DOP receptor antagonist) and CTOP (MOP receptor antagonist). […] The results are expressed as a percentage of respective control-specific response. […] These findings indicate that TAPS cyclic peptides are MOP selective full agonists. […] The cyclic TAPS peptide had lower activity than the linear parent TAPS peptide (90 ± 5%) – a finding that can be attributed to their restricted conformation relative to the flexible linear peptide conformation.
(§2) The respective reference, non-peptide small molecules were tested concurrently with the TAPS analogs; Agonist compounds DPDPE ([D-Pen2,D-Pen5]enkephalin), selective agonist of DOP receptor at 2 × 10^−9 M and DAMGO ([D-Ala2, N-MePhe4, Gly-ol] enkephalin), high MOP specificity at 2.5 × 10^−9 M; Antagonist compounds: naltrindole 7-(cyclopropylmethyl)-6,7-dehydro-4,5α-epoxy-3,14-dihydroxy-6,7-2′,3′-indolomorphinan hydrochloride, selective DOP antagonist, 5 × 10^−10 M and CTOP (D-Phe-Cys-Tyr-D-Trp-Orn-Thr-Pen-Thr-NH2), MOP antagonist at 3.4 × 10^−7 M. Depending on the assay volume and solvent tolerance, the stock solutions were diluted to [100×], [333×] or [1,000×] in 100% DMEM solvent, then either added directly or further diluted to [10×] or [5×] in H2O or Hank's balanced salt solution (HBSS) before addition to the assay well (final solvent concentration kept constant). The cultures were incubated for 10 min at 37°C followed by impedance measurements using cellular dielectric spectroscopy of CHO cells and cAMP was assayed by homogeneous time resolved fluorescence (HTRF) method using NG-10815 cells, according to CEREP standard assay protocols (https://euroscreenfast.com/assays/opioid-orl1-camp-fast-0360c; https://euroscreenfast.com/assays/opioid-op1-delta-camp-fast-0379c). The results (mean of three experiments) are expressed as a percent of control specific agonist response [(measured TAPS specific response/control specific agonist response) × 100] and as a percent inhibition of control specific agonist response [100 – (measured TAPS specific response/control specific agonist response) × 100] obtained in the presence of the TAPS compounds. Results showing a stimulation or an inhibition lower than 25% were considered not significant and mostly attributable to variability of the signal around the control level. Results showing a stimulation or an inhibition higher than 50% were considered to represent significant effects of the TAPS compounds.

[2] = target: T2, human recombinant μ (MOP, OPRM1) receptor (Homo sapiens, UniProt P35372); experiment: MOP opioid receptor functional antagonism in CHO cells expressing human recombinant μ receptors; type: cell-based; conditions: Between 10^−9-10^−6 M, percent inhibition of control specific agonist response, values lower than 25% not significant
T2 construct: host or cells: CHO cells
Experimental: as §1, §2

[3] = target: T2, human recombinant μ (MOP, OPRM1) receptor; experiment: MOP opioid receptor functional agonism in CHO cells expressing human recombinant μ receptors; type: cell-based; conditions: At 10^−6 M, percent of control specific agonist response, values lower than 25% not significant
Experimental: as §1
Evaluation of the Agonist Activity of Compounds at the Human μ Receptor in Transfected CHO Cells, Determined by Measuring Their Effects on cAMP modulation Using the HTRF Detection Method
Thereafter, the adenylyl cyclase activator NKH 477 is added at a final concentration of […]. Following 10 min incubation at 37°C, the cells are lysed and the fluorescence acceptor (D2-labeled cAMP) and fluorescence donor (anti-cAMP antibody labeled with europium cryptate) are added. After 60 min at room temperature, the fluorescence transfer is measured at lex = 337 nm and lem = 620 and 665 nm using a microplate reader (Rubystar, BMG). The cAMP concentration is determined by dividing the signal measured at 665 nm by that measured at 620 nm (ratio). The results are expressed as a percent of the control response to 1 μM DAMGO. The standard reference agonist is DAMGO, which is tested in each experiment at several concentrations to generate a concentration-response curve from which its EC50 value is calculated.
as §2, with “Results showing a stimulation or an inhibition lower than 25% were considered not significant and mostly attributable to variability of the signal around the control level. Results showing a stimulation or an inhibition higher than 50% were considered to represent significant effects of the TAPS compounds.” left out

[4] = target: T1, δ (DOP, OPRD2) opioid receptor; experiment: DOP opioid receptor functional agonism in NG-10815 cells; type: cell-based, rat; conditions: At 10^−6 M, percent of control specific agonist response
Experimental: as §1
Evaluation of the Agonist Activity of Compounds at the Rat delta2 Receptor Endogenously Expressed in NG-10815 Cells, Determined by Measuring Their Effects on Impedance Modulation Using the CellKey (CDS) Detection Method
Cells are seeded onto 96-well plate coated with fibronectin at 2 × 10^5 cells/well in HBSS buffer (Invitrogen) + 20 mM HEPES (Invitrogen) with 0.1% BSA and allowed to equilibrate for 60 min at 37°C before the start of the experiment. Plates are placed onto the system and measurements are made at a temperature of 37°C. […] Impedance measurements are monitored for 10 min after ligand addition. The standard reference agonist is DPDPE, which is tested in each experiment at several concentrations to generate a concentration-response curve from which its EC50 value is calculated.
as §2, with “The results (mean of three experiments) are expressed as a percent of control specific agonist response [(measured TAPS specific response/control specific agonist response) × 100] and as a percent inhibition of control specific agonist response [100 – (measured TAPS specific response/control specific agonist response) × 100] obtained in the presence of the TAPS compounds. Results showing a stimulation or an inhibition lower than 25% were considered not significant and mostly attributable to variability of the signal around the control level. Results showing a stimulation or an inhibition higher than 50% were considered to represent significant effects of the TAPS compounds.” left out

[5] = target: human recombinant μ opioid receptor (human) (UniProt P35372)
Chain of human recombinant μ opioid receptor (human) (P35372 whole entry): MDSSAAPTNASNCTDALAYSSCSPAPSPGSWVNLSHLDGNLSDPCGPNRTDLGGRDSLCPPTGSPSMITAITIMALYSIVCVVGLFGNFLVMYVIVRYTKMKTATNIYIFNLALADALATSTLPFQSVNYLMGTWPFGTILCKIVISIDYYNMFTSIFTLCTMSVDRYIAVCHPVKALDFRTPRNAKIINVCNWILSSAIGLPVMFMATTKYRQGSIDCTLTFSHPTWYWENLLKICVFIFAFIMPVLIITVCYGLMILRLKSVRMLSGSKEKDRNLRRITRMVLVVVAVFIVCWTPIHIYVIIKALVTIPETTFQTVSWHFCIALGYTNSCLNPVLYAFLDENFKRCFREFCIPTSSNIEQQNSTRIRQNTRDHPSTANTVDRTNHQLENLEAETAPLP

T2 sequence (P35372 whole entry): as above
T1 sequence (P32300 whole entry): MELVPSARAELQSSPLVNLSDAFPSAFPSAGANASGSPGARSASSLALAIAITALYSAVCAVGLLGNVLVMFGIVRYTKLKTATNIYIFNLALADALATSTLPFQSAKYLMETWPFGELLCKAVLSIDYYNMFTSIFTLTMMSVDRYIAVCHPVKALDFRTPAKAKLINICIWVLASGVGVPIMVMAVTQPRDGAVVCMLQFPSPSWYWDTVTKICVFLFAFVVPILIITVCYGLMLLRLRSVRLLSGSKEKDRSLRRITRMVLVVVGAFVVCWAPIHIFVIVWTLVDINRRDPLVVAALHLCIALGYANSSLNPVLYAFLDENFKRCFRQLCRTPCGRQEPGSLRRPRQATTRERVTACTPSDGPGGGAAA

Molecule | DOP antagonist (%) [1] [%] | MOP agonist (%) [3] | MOP agonist (%) at 10^-6 M: percent of control specific agonist response (DAMGO), CHO cells expressing human recombinant μ receptors; values lower than 25% are not significant [5] [%] | further results
TAPS c(2-3): backbone-cyclic TAPS analog, urea bridge; n-m alkyl chain lengths on nitrogens of Gly and Arg; ring size 15 (YRF[N(2-Aminoethyl)Gly]-NH2; bridge 2-4 via CO; not fully specified (residue 2); also: urea bridge between the two N-alkyl chains) | 2 | 24% | – | MOP antagonist (%) [2]: 1%
TAPS c(3-6): backbone-cyclic TAPS analog, urea bridge; ring size 19 (YRF[NGly(3-aminopropyl)]-NH2; bridge 2-4 via CO; not fully specified (residue 2); also: urea bridge between the two N-alkyl chains) | 1 | 1% | – | MOP antagonist (%) [2]: 2%
TAPS c(4-3): backbone-cyclic TAPS analog, urea bridge; ring size 17 (YRF[Nlys]-NH2; bridge 2-4 via CO; not fully specified (residue 2); also: urea bridge between the two N-alkyl chains) | 0 | 63 ± 5% and 63^** % | – | DOP agonist (%) [4]: 11%
TAPS c(4-6): backbone-cyclic TAPS analog, urea bridge; ring size 20 (YRF[Nlys]-NH2; bridge 2-4 via CO; not fully specified (residue 2); also: urea bridge between the two N-alkyl chains) | 3 | 1% | – | MOP antagonist (%) [2]: 1%
TAPS c(6-3): backbone-cyclic TAPS analog, urea bridge; ring size 19 (YRF[N(6-aminohexyl)Gly]-NH2; bridge 2-4 via CO; not fully specified (residue 2); also: urea bridge between the two N-alkyl chains) | 8 | 75 ± 9% and 75^** % | – | DOP agonist (%) [4]: 19%
Y[dR(Nα-3-aminopropyl)]F[Gly(N-3-aminopropyl)] (bridge 2-4 via CO; not fully specified) [TAPS c(3-3)] | – | – | 1 | –
Y[dR(Nα-3-aminopropyl)]F[Gly(N-6-aminohexyl)] (bridge 2-4 via CO; not fully specified) [TAPS c(6-3)] | – | – | – | MOP agonist (%) at 10^-6 M: percent of control specific agonist response (DAMGO), CHO cells expressing human recombinant μ receptors [5]: 75%
Y[dR(Nα-6-aminohexyl)]F[Gly(N-2-aminoethyl)′]-NH2 (bridge 2-4 via CO; not fully specified) [TAPS c(2-6)] | – | – | – | MOP agonist (%) at 10^-6 M: percent of control specific agonist response (DAMGO), CHO cells expressing human recombinant μ receptors [5]: 48%
Y[dR(Nα-3-aminopropyl)]F[Gly(N-4-aminobutyl)] (bridge 2-4 via CO; not fully specified) [TAPS c(4-3)] | – | – | – | MOP agonist (%) at 10^-6 M: percent of control specific agonist response (DAMGO), CHO cells expressing human recombinant μ receptors [5]: 63%
Y[dR]F[Sar] [linear peptide Tyr-D-Arg-Phe-Sar (TAPS)] | – | – | – | MOP agonist (%) at 10^-6 M: percent of control specific agonist response (DAMGO), CHO cells expressing human recombinant μ receptors [5]: 90%
Y[dR(Nα-6-aminohexyl)]F[Gly(N-6-aminohexyl)] (bridge 2-4 via CO; not fully specified) [TAPS c(6-6)] | – | – | 21 | –
Y[dR(Nα-6-aminohexyl)]F[Gly(N-4-aminobutyl)] (bridge 2-4 via CO; not fully specified) [TAPS c(4-6)] | – | – | 1 | –
Y[dR(Nα-6-aminohexyl)]F[Gly(N-3-aminopropyl)] (bridge 2-4 via CO; not fully specified) [TAPS c(3-6)] | – | – | 1 | –
Y[dR(Nα-3-aminopropyl)]F[Gly(N-2-aminoethyl)′] (bridge 2-4 via CO; not fully specified) [TAPS c(2-3)] | – | – | 24 | –
